Data: patent publication US20210252150A1

Columns and labels:
[1] = target: HA of A/Hong Kong/1073/99 (H9) (influenza A virus (H9))
[2] = target: HA of A/Singapore/1/1957 (H2) (influenza A virus (H2)) (UniProt Q67333)
[3] = target: HA of A/Netherlands/219/2003 (H7N7) (influenza A virus (H7N7))
[4] = target: HA of A/Indonesia/5/2005 (H5N1) (influenza A virus (H5N1))
[5] = target: HA of A/mallard duck/Astrakhan/263/1982 (H14N5) (influenza A virus (H14N5))
[6] = target: HA of A/shearwater/Western Australia/2576/1979 (H15N9) (influenza A virus (H15N9))
[7] = target: HA of A/Shanghai/2/2013 (H7N9) (influenza A virus (H7N9))
[8] = target: HA of A/Hong Kong/1/1968 (H3N2) (influenza A virus (H3N2)) (UniProt Q91MA7)
[9] = target: HA of A/duck/Czechoslovakia/1956 (H4); experiment: ELISA, recombinant HA
[10] = target: HA of A/California/04/2009 (H1N1) (influenza A virus (H1N1)) (UniProt P26140); experiment: ELISA, recombinant HA

Substance: rFluA-20 heavy chain mutant C101A (antibody)
- EC50 fold over wild-type rFluA-20 [1]: > 100 fold
- EC50 [2]: 0.44 µg/mL
- EC50 [3]: 0.17 µg/mL
- EC50 fold over wild-type rFluA-20 [4]: > 100 fold
- EC50 fold over wild-type rFluA-20 [5]: > 100 fold
- EC50 [6]: 0.11 µg/mL
- EC50 fold over wild-type rFluA-20 [7]: > 100 fold
- EC50 [8]: 0.13 µg/mL

Substance: rFluA-20 light chain mutant N53A (antibody)
- EC50 [1]: 0.17 µg/mL
- EC50 [3]: 0.05 µg/mL
- EC50 fold over wild-type rFluA-20 [4]: > 100 fold
- EC50 fold over wild-type rFluA-20 [5]: > 100 fold
- EC50 [6]: 0.06 µg/mL
- EC50 [7]: 0.87 µg/mL

Substance: rFluA-20 light chain mutant Q55A (antibody)
- EC50 [3]: 0.17 µg/mL
- EC50 fold over wild-type rFluA-20 [6]: > 100 fold

Substance: CR6261 (antibody)
- EC50 [9]: 0.023 µg/mL
- EC50 [10]: 0.012 µg/mL

Substance: rFluA-20 light chain mutant Y49A (antibody)
- EC50 fold over wild-type rFluA-20 [3]: > 100 fold
